This note sets out measurements from paper doi:10.1101/306175.

One may read the Kd as the equilibrium constant for the complex coming apart.

Data set [1] deals with DNA polymerase I Klenow Fragment (KF) (E. coli, UniProt P00582 324-928, D424A). Description: single-molecule FRET.
Data set [2] concerns the target Pol β "wild-type" (unlabelled) (UniProt P06746 1-335, C239S;C267S;V303C). Description: single-molecule FRET titration.

B1: 1-nt gapped DNA bending sensor (Cy3B/Cy5) (dsDNA)
DNA 1: CCTCATTCTTCGTCCCATTACCATACATCC
DNA 2: CCACGAAGCAGGCTCTACTCTCTAAGGATGTATGGTAATGGGACGAAGAATGAGG
DNA 3: TAGAGAGTAGAGCCTGCTTCGTGG
modifications: primer 3' dideoxy-terminated (printed TCCH); 5'-phosphate on downstream strand
As to B1, the binding result in data set [1] was “binds”. In data set [2], the dissociation constant (Kd) came to 19 ± 2 nM.
